First the molecules themselves.
B1: 配列番号:39により表されるアミノ酸配列を含む抗HSA抗体 (VHH)
VHH: QLQLVESGGGLVQAGGSLRLSCAASGRTFRFSAMGWFRQAPGKEREFAAAISWTGGTTAYAESVKGRFIISRDNAKNTVYLQMNSLKPEDTAVYYCAAGPIPSPASRYDDWGQGTQVTVSS
notes: Expressed in E. coli from pRA2(+); also called H14A; H14A; not shown: C-terminal His tag from vector pRA2(+) (Ni-NTA purification, anti-His detection)
B2: 配列番号:36により表されるアミノ酸配列を含む抗HSA抗体 (VHH)
VHH: EVQLVESGGGFVQPGGSLRLSCVASGFTFERFDMGWVRQAPGKSLEWVSRFNSDDGRKSYADSVKGRFAISRDNAENTLYLQMNNLIPEDTAMYYCVKCQAYTSCTDAEDRGQGTQVTVSS
notes: Expressed in E. coli BL21(DE3) pLysS from pRA2(+) behind a vector-encoded leader; also called H01A; H01A; not shown: C-terminal His tag from vector pRA2(+) (Ni-NTA purification, anti-His detection)
B3: 配列番号:37により表されるアミノ酸配列を含む抗HSA抗体 (VHH)
VHH: EVQLVESGGGLVHPGGSLRLSCVASGSDVSSDTMGWFRRAPGKQRELVAAIAWGGSTHYAESVKGRFTISRDNAKNTVYLQLSNLKPEDTAVYLCNTRNYWGQGTQVTVSS
notes: Expressed in E. coli from pRA2(+); also called H08A; H08A; not shown: C-terminal His tag from vector pRA2(+) (Ni-NTA purification, anti-His detection)
B4: 配列番号:40により表されるアミノ酸配列を含む抗HSA抗体 (VHH)
VHH: QVQLVESGGGLVQAGKSLRLSCTASGSIPSIGVTGWHRQAPGKQRELVATISQGGHINYFESVKGRFTISRDNAKNTVYLQMNSLKPEDTGVYYCNAFWLPLRLNDYWGQGTQVTVSS
notes: Expressed in E. coli from pRA2(+); also called H32A; H32A; not shown: C-terminal His tag from vector pRA2(+) (Ni-NTA purification, anti-His detection)
B5: 配列番号:38により表されるアミノ酸配列を含む抗HSA抗体 (VHH)
VHH: QVQLVESGGGLVQTGGSLRLSCAASGRIVTVAAMGWFRQAPGKEREFVASISWSGRSRSYADSVKGRFTISRDNAKNTAYLQMSSLKPEDTGVYYCALGGNSYSSDYARYDYWGQGTQVTVSS
notes: Expressed in E. coli from pRA2(+); also called H10A; H10A; not shown: C-terminal His tag from vector pRA2(+) (Ni-NTA purification, anti-His detection)

In this assay the target is T1, ヒト血清アルブミン (human, UniProt P02768 25-609).
T1 construct: also called HSA; HSA
T1 sequence (P02768 25-609 limits assumed): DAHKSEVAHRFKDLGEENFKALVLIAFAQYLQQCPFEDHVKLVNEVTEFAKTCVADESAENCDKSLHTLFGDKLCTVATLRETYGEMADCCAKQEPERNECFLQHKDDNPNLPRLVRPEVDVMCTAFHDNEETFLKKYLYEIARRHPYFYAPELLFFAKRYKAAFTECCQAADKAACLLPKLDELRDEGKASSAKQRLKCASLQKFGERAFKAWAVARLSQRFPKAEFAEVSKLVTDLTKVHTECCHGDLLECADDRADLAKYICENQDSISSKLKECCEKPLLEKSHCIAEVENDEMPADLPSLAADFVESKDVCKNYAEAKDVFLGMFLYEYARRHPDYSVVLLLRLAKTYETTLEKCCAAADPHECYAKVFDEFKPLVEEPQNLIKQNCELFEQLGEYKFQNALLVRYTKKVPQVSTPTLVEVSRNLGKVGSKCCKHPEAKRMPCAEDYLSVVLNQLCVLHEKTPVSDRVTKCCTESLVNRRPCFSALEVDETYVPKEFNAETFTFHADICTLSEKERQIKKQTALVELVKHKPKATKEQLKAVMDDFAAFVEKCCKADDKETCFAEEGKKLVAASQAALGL
Put plainly: SPR (Biacore T200), HSA amine-coupled on CM5 chip, VHH as analyte. (In general: Surface plasmon resonance follows binding to a sensor surface in real time, without labels.)
The Kd is the equilibrium constant for the complex coming apart. Read a high Kd as a looser complex. Molecule B1 yielded a Kd of 296 nM.
B2 returned a Kd of 22.9 nM. Against the preceding molecule, the Kd is about 13-fold lower.
B3: the Kd worked out at 62.2 nM.
The result for B4 reads 0.077 nM.
In turn, B5 yielded a Kd of 124 nM. Against the preceding molecule, the Kd is about 1600-fold higher.

The values are drawn from patent publication JP2022142155A (dated 2022).
